The text below walks through data of doi:10.1101/2020.06.27.175497, “Novel mode of filament formation in UPA-promoted CARD8 and NLRP1 Inflammasomes” (bioRxiv, 2020).

What is called stoichiometry N is a count of units in the complex or per binding partner.

First the molecules themselves.
B1: ASC^CARD (106-195) W169G (domain or fragment, UniProt Q9ULZ3 106-195, looked up)
chain: SAAKPGLHFIDQHRAALIARVTNVEWLLDALYGKVLTDEQYQAVRAEPTNPSKMRKLFSFTPAGNWTCKDLLLQALRESQSYLVEDLERS
notes: ASC, CARD, residues 106-195; Stood in the experiment on one chain with caspase-1^CARD G20K through a 5 x GSS linker (fusion m9); also called type IIa W169G mutant of ASC^CARD; source: E. coli BL21 (DE3), purified (Ni-NTA, TEV cleavage, amylose flow-through, Superdex 200), as part of the fusion m9
B2: ASC^CARD (106-195, W169G) - 5 x GSS linker - caspase-1^CARD (1-95, G20K) fusion protein (other)
chain: SAAKPGLHFIDQHRAALIARVTNVEWLLDALYGKVLTDEQYQAVRAEPTNPSKMRKLFSFTPAGNWTCKDLLLQALRESQSYLVEDLERSGSSGSSGSSGSSGSSMADKVLKEKRKLFIRSMGEKTINGLLDELLQTRVLNKEEMEKVKRENATVMDKTRALIDSVIPKGAQACQICITYICEEDSYLAGTLGLSADQTS
notes: ASC, CARD, residues 106-195; 5 x GSS linker, written out from '5XGSS'; caspase-1, CARD, residues 1-95; Tetramer of the fusion = octamer of CARDs; also called ASC^CARD-caspase-1^CARD fusion protein; ASC^CARD-CASP1^CARD; source: E. coli BL21 (DE3), purified (Ni-NTA, TEV cleavage, amylose flow-through, Superdex 200); not shown: His6, N-terminal, cleaved; MBP, N-terminal, cleaved
B3: caspase-1^CARD (1-95) G20K (domain or fragment, UniProt P29466 1-95, looked up)
chain: MADKVLKEKRKLFIRSMGEKTINGLLDELLQTRVLNKEEMEKVKRENATVMDKTRALIDSVIPKGAQACQICITYICEEDSYLAGTLGLSADQTS
notes: caspase-1, CARD, residues 1-95; Stood in the experiment on one chain with ASC^CARD W169G through a 5 x GSS linker (fusion m9); also called CASP1^CARD; type IIb G20K mutant of caspase-1^CARD; source: E. coli BL21 (DE3), purified (Ni-NTA, TEV cleavage, amylose flow-through, Superdex 200), as part of the fusion m9
B4: NLRP1-CT (UPA-CARD fragment of NLRP1, S1213-S1473) (domain or fragment, human, UniProt Q9C000-1 1213-1473, looked up)
chain: SPLGVLLKMIHNALRFIPVTSVVLLYHRVHPEEVTFHLYLIPSDCSIRKAIDDLEMKFQFVRIHKPPPLTPLYMGCRYTVSGSGSGMLEILPKELELCYRSPGEDQLFSEFYVGHLGSGIRLQVKDKKDETLVWEALVKPGDLMPATTLIPPARIAVPSPLDAPQLLHFVDQYREQLIARVTSVEVVLDKLHGQVLSQEQYERVLAENTRPSQMRKLFSLSQSWDRKCKDGLYQALKETHPHLIMELWEKGSKKGLLPLSS
notes: NLRP1, human, UPA-CARD fragment S1213-S1473, isoform 1 (Q9C000-1); Forms thick helical filaments of CARD dimers; the purified filaments still held some uncleaved His-MBP-tagged subunits; Only the CARD is resolved in the map; also called NLRP1^UPA-CARD; source: E. coli BL21 (DE3), purified (amylose resin, Superose 6, MBP-3C protease cleavage, Superose 6 void fraction); not shown: His, …
B5: His-MBP-3C-UPA-CARD of NLRP1 (uncleaved MBP fusion of NLRP1-CT) (domain or fragment, human, UniProt Q9C000-1 1213-1473, looked up)
chain: B4 chain
notes: NLRP1, human, UPA-CARD fragment S1213-S1473, isoform 1 (Q9C000-1); HRV 3C protease linker between MBP and UPA-CARD; modified pDB-His-MBP vector; also called MBP-fusion protein; MBP-CT fusion protein; source: E. coli BL21 (DE3), purified (amylose resin, Superose 6); not shown: His, N-terminal, kept; MBP, N-terminal, kept
B6: CARD8-CT (UPA-CARD fragment of CARD8, S297-L537) (domain or fragment, human, UniProt Q9Y2G2-5 297-537, looked up)
chain: SLMGILLRIASGTRLSIPITSNTLIYYHPHPEDIKFHLYLVPSDALLTKAIDDEEDRFHGVRLQTSPPMEPLNFGSSYIVSNSANLKVMPKELKLSYRSPGEIQHFSKFYAGQMKEPIQLEITEKRHGTLVWDTEVKPVDLQLVAASAPPPFSGAAFVKENHRQLQARMGDLKGVLDDLQDNEVLTENEKELVEQEKTRQSKNEALLSMVEKKGDLALDVLFRSISERDPYLVSYLRQQNL
notes: CARD8, human, UPA-CARD fragment S297-L537 of the T60 isoform; numbers count on: the T60 isoform Q9Y2G2-5; Forms helical filaments; the purified filaments still held some uncleaved His-MBP-tagged subunits; Only the CARD is resolved in the map; also called CARD8^UPA-CARD; source: E. coli BL21 (DE3), purified (amylose resin, MBP-3C protease cleavage, Superose 6 void fraction); not shown: His, …
B7: His-MBP-3C-UPA-CARD of CARD8 (uncleaved MBP fusion of CARD8-CT) (domain or fragment, human, UniProt Q9Y2G2-5 297-537, looked up)
chain: B6 chain
notes: CARD8, human, UPA-CARD fragment S297-L537 of the T60 isoform; numbers count on: the T60 isoform Q9Y2G2-5; HRV 3C protease linker between MBP and UPA-CARD; modified pDB-His-MBP vector; also called MBP-fusion protein; MBP-CT fusion protein; source: E. coli BL21 (DE3), purified (amylose resin); not shown: His, N-terminal, kept; MBP, N-terminal, kept
B8: NLRP1^CARD (D1374-S1473, with G1463C) (domain or fragment, human, UniProt Q9C000-1 1374-1473, looked up)
chain: DAPQLLHFVDQYREQLIARVTSVEVVLDKLHGQVLSQEQYERVLAENTRPSQMRKLFSLSQSWDRKCKDGLYQALKETHPHLIMELWEKCSKKGLLPLSS
notes: NLRP1, human, CARD D1374-S1473, isoform 1 (Q9C000-1); G1463C (helix alpha6) was added for cysteine labelling in the constructs for in vitro analyses; The cleavage of the tag is described for the CARD8^CARD filament assay; also called CARD alone; WT CARD; source: E. coli BL21 (DE3), purified as monomeric MBP-CARD (amylose resin, Superdex 200), filaments formed in vitro

For series [1], the target named is B3. In words: cryo-EM structure; purified ASC^CARD-caspase-1^CARD octamer (tetramer of the fusion protein); single-particle reconstruction. Particulars: both partners purified.
Series [2] concerns the molecule itself. Described as above.
Series [3] deals with the molecule itself. In words: SEC-MALS; Superdex 200 in 25 mM Tris-HCl pH 8.0, 150 mM NaCl, 2 mM DTT; three-angle light scattering and refractive index detectors. For orientation: Size exclusion chromatography separates by hydrodynamic size, large species first.
Series [4] concerns the molecule itself. The series can be described thus: negative-stain EM of filaments formed in vitro; recombinant MBP-tagged protein cleaved with 3C protease, sample stained with 1% uranyl formate and imaged.
Series [5] concerns the molecule itself. In words: SEC; amylose eluate of His-MBP-NLRP1-CT on Superose 6 in 25 mM Tris-HCl pH 7.5, 150 mM NaCl, 1 mM TCEP; a range of small oligomers.
The target of series [6] is B4. In words: SEC; after partial 3C cleavage, filaments recovered from the Superose 6 void fraction; SDS-PAGE of the fraction shows uncleaved MBP-tagged protein. The following applies: both partners purified.
Series [7] deals with the molecule itself. In words: cryo-EM structure; purified CARD8 CT filaments (Superose 6 void fraction), A280 = 0.75; 25 mM Tris-HCl pH 7.5, 150 mM NaCl, 1 mM TCEP; helical reconstruction.
Series [8] deals with B6. In words: SEC; after partial 3C cleavage, filaments recovered from the Superose 6 void fraction; SDS-PAGE of the fraction shows uncleaved MBP-tagged protein. Particulars: both partners purified.

As to B1, the binding result in series [1] and in series [2] was “binds” each time.

B2: the “stoichiometry N” value in series [3] is 4.

With B3, the binding result in series [2] is given as “binds”. With B4, the binding result in series [4] was “binds”. Consider B5, for which the binding result in series [5] and in series [6] was “binds” in each case.

As for B6, the binding result in series [7] is “binds”. In the case of B7, the binding result in series [8] was “binds”. B8: in series [4], the binding result was “binds”.
